Reference: patent US20260275312, “CRISPR NUCLEASE POLYPEPTIDES AND GENE EDITING SYSTEMS COMPRISING SUCH” (ARBOR BIOTECHNOLOGIES, INC., published 2026)

Molecular target: T1, Nuclease S W509R/T72R/I845R (synthetic construct, W509R,T72R,I845R)
T1 chain: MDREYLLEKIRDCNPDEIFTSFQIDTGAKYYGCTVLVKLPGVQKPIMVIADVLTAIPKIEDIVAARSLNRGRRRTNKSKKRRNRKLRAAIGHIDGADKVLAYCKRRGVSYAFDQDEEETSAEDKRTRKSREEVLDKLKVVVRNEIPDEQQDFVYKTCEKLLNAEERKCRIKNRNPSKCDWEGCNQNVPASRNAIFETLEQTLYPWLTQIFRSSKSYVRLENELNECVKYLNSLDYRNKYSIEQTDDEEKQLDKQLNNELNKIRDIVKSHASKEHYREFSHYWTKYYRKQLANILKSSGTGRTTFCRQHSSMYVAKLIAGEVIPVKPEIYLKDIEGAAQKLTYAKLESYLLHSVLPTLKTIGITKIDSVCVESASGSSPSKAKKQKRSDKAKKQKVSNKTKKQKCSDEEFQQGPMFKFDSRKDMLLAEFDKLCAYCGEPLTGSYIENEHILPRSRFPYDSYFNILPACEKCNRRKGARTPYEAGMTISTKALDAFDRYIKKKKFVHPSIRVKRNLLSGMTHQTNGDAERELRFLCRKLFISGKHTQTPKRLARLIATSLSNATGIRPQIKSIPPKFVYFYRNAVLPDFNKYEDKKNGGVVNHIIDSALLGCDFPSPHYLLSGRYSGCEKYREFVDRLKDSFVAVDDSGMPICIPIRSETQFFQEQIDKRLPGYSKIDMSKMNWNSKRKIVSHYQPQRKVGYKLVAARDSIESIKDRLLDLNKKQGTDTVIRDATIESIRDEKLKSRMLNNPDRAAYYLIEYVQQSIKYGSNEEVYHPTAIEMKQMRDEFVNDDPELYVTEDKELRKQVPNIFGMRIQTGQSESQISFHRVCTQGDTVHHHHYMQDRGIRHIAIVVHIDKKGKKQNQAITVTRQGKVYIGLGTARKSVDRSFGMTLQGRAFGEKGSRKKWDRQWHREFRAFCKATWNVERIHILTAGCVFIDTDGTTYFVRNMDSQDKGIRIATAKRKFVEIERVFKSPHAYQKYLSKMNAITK
Experiment: cell_activity; HEK293T; PAM AACC
Settings: tags: N-term SV40 NLS, XTEN linker + C-term nucleoplasmin NLS
Description: HEK293T cells were transfected with plasmids expressing the Nuclease S polypeptides and the gRNAs provided herein following the methods provided in Example 1 above. Gene editing efficiencies were determined by NGS following the methods also provided in Example 1. The NGS results were analyzed also following the methods provided in Example 1 above.
Each Nuclease S variant was cloned as described in Example 6. HEK293T cells were further transfected with a plasmid encoding a Nuclease S variant and a plasmid encoding an RNA guide of Table 11, followed by NGS analysis, as described in Example 5. For each target, indel ratios, referring to the percentage of NGS reads comprising indels, were calculated for the reference Nuclease S (SEQ ID NO: 49) and for each Nuclease S variant. The indel ratios shown in Table 13 were calculated as the average of two bioreplicates, each of which contained two technical replicates.

B1: S AAVS1-T7 RNA guide ; AAVS1-T7 target (S) (ssRNA ; dsDNA)
RNA: GGCUAUAAUCCAUGCUGACCGUUGUAUUCGGAUGGGAGUAAAAGGUUGAGUACACCUGGAAACAAAACGACAUAAAGGUGUUCUCCCAUCUGUGUACAAAGAGCAGAUAUAUGAGUUGAUAAGUAAUAUGUUGCACGUAUGGACUUUGACAGUCUGUACCUCUGCGUGAAAGACAUAUUGCGUUAUUCAUAUAUCUGUGAGUCUGUUCUAAAUUUAAAGGUUUAGGGAA
DNA 1: GGCTATAATCCATGCTGACC
DNA 2: GGTCAGCATGGATTATAGCC
In the case of B1, the activity is reported as 0.305 indel ratio.
